Experimental data taken from publication PMC7857400 (Science (New York, N.y.), 2020).
Residue numbers refer to the chain shown, from its start.

Columns and labels:
[1] = biological target: T1, SARS-CoV-2 spike protein receptor binding domain (RBD) (SARS-CoV-2, UniProt P0DTC2); assay: SPR; conditions: both partners purified
[2] = biological target: T1, SARS-CoV-2 spike protein receptor …; assay: cell-based or functional assay

B1: Nb20 (VHH)
VHH: QVQLVESGGGLVQAGGSLRLSCAVSGAGAHRVGWFRRAPGKEREFVAAIGASGGMTNYLDSVKGRFTISRDNAKNTIYLQMNSLKPQDTAVYYCAARDIETAEYIYWGQGTQVTVSS
Kd [1]: 0.0104 nM | IC50 of neutralisation, pseudotyped SARS-CoV-2 (luciferase reporter); RBD-hACE2 is the pair interfered with [2]: 0.102 nM

B2: Nb21 (VHH)
VHH: B1 VHH with A27L, S52N, M55N, I105T
IC50 of neutralisation, pseudotyped SARS-CoV-2 (luciferase reporter); RBD-hACE2 is the pair interfered with [2]: 0.045 nM
